Ends that are not written are not given here.
Assays:
[1] = biological target: D-IZN17 (HIV-1) (UniProt P04578); experiment: clonal phage binding assay in the presence of 25 µM L-2K-PIE2 competitor
[2] = biological target: D-IZN17 (HIV-1) (UniProt P04578); experiment: clonal phage binding assay, solution phase, D-IZN17 pulled down on streptavidin beads

B1: PIE2-φ (peptide)
peptide: GACDYPEWRWLCAA
modifications: not fully specified (C-terminus); cysteine pairing not given here; also: displayed on M13 g3 protein
- fold binding relative to PIE9-φ [1]: 3 fold
- fold binding relative to PIE1-φ [2]: 5 fold

B2: PIE8-φ (peptide)
peptide: GACDYKEWQWLCAA
modifications: not fully specified (C-terminus); cysteine pairing not given here; also: displayed on M13 g3 protein
- fold binding relative to PIE2-φ [1]: 2 fold

B3: PIE7-φ (peptide)
peptide: GACDYPEWQWLCAA
modifications: not fully specified (C-terminus); cysteine pairing not given here; also: displayed on M13 g3 protein
- fold binding relative to PIE2-φ [1]: 10 fold

B4: PIE2-AAA-φ (peptide)
peptide: GACDYPEWRWLCAAA
- fold binding relative to wt PIE2-φ [1]: 70 fold
